Tests used:
[1] = molecular target: GST-CA-Rac1 (constitutively-active Rac1 fused to GST) (UniProt P63000); experiment: pull-down; GST fusion (GST-RacWT, GST-CA-Rac1 or GST-alone) on glutathione-agarose beads; 550-1000 ug total lysate of HP cells, unstimulated or treated with TGFβ1 (10 ng/mL) up to 60 min; 2 h at 4 °C; three washes; immunoblot for Trio or CdGAP (LiCor)
[2] = molecular target: GST-Rac1 (wild type Rac1 fused to GST) (UniProt P63000); experiment: as above

CdGAP, sequence (Q2M1Z3 whole entry): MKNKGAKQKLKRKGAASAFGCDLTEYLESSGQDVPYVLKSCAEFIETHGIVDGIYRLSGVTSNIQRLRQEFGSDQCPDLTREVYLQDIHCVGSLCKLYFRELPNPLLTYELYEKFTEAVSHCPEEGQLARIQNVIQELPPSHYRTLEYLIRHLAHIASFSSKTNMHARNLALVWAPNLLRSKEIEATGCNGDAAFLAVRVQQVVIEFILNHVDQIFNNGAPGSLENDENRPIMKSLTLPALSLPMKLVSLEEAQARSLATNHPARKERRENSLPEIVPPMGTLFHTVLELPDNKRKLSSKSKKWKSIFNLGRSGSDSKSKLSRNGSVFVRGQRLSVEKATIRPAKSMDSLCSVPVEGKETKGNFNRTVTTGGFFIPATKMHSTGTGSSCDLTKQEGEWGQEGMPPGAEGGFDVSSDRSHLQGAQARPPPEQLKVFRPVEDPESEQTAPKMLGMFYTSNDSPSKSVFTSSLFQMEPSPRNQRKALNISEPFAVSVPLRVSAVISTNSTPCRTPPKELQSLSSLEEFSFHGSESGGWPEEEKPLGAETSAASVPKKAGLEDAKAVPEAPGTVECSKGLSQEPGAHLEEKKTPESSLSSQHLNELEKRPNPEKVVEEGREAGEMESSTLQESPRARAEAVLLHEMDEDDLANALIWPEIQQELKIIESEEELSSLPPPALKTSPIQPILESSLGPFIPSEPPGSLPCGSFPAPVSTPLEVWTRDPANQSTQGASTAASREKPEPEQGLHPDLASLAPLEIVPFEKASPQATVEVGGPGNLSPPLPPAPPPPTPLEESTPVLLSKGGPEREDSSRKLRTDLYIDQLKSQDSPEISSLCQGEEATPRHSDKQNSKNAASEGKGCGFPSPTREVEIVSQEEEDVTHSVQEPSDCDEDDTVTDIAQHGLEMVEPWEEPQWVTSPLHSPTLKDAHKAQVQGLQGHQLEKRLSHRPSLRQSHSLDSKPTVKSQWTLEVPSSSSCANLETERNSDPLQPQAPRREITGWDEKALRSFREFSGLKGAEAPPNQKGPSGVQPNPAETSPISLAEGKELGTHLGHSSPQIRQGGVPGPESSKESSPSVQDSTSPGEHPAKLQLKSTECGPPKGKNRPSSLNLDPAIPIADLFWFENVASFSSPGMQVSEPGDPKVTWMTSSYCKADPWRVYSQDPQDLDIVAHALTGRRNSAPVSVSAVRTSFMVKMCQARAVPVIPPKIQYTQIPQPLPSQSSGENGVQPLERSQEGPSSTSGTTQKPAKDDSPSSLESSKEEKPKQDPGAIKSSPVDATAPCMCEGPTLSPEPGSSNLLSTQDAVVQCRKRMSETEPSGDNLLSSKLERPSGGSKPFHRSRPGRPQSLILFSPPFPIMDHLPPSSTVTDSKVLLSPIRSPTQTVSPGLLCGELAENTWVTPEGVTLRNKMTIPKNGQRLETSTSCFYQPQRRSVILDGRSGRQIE

fold change of CdGAP pulled down by GST-CA-Rac1, 30 min TGFβ1 against 0 min [1] [fold] | fold change of CdGAP pulled down by GST-CA-Rac1, 45 min TGFβ1 against 0 min [1] [fold] | fold change of CdGAP pulled down by GST-CA-Rac1, 60 min TGFβ1 against 0 min [1] [fold] | fold change of Trio bound to GST-Rac1, 45 min TGFβ1 against unstimulated [2] [fold] | Substance
1.55 | 1.56 | 1.53 | – | CdGAP (from UniProt Q2M1Z3 1-1444) (natural protein)
– | – | – | 1.82 | Trio, O75962 1-3097 (natural protein; other documents disagree on this pair)

From publication PMC5855701
